Laboratory results: patent US20090074779A1 (COPENHAGEN UNIVERSITY, published 2009)

T1: P75 receptor (UniProt P08138 29-250, limits assumed)
T1 construct: also called p75NTR; p75(NTR)
T1 sequence (looked up): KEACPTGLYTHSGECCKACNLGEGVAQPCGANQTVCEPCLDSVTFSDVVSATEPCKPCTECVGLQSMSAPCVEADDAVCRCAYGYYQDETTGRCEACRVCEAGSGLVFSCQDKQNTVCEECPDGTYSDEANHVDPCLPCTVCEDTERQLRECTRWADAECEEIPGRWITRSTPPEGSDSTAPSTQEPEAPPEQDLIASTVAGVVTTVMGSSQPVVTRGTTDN


Key:
Assay in all cases: SPR (BIAlite), receptor amine-coupled on CM4 chip, ligand injected, 25 C
TrkC = target: T2, TrkC (UniProt Q16288 32-429, limits assumed)
T2 construct: also called NTRK3; TrkC receptor
Experimental: (§1) The TrkA, TrkB and TrkC receptors and p75^NTR were immobilized on a sensor chip, CM4, using an amine-coupling kit as follows: the chip was activated by 20 μl activation solution, N-hydroxysuccinimide, (NHS) and N-ethyl-N′-(3-[…])-carbodiimide (EDC), the protein was immobilized using 30 μl of a mixture of 4 μl (0.5 μg/ml) protein in 50 μl 10 mM sodium acetate buffer (pH 4.0); and the chip was blocked by 35 μl blocking solution (ethanolamine-HCl). The receptor surface was regenerated between ligand injections with 15 μl 2 mM NaCl or 10 mM glycine-HCl, pH 2.5. In the present experiments a flow rate of 5 μl/min was used.
(§2) The curve corresponding to the difference between binding to the Trk receptors or the […] receptor and a blank chip was used for analysis.

P75 receptor = target: T1, P75 receptor
Experimental: as §1, §2

TrkA = target: T3, TrkA (UniProt P04629 34-413, limits assumed)
T3 construct: also called NTRK1; TrkA receptor
Experimental: as §1, §2

TrkB = target: T4, TrkB (UniProt Q16620 32-430, limits assumed)
T4 construct: also called NTRK2; TrkB receptor
Experimental: as §1, §2

T4 sequence (Q16620 32-430 limits assumed): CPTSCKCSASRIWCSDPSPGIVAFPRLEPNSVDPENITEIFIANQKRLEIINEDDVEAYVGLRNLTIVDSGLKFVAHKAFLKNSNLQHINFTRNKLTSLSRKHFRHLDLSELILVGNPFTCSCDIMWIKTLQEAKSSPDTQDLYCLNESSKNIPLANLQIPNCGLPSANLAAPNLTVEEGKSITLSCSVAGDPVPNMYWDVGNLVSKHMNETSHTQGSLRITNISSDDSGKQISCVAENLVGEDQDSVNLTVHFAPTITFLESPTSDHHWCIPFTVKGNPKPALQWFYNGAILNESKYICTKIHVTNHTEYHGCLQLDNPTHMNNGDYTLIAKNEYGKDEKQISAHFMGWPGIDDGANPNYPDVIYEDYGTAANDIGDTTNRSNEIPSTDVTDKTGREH
T3 sequence (P04629 34-413 limits assumed): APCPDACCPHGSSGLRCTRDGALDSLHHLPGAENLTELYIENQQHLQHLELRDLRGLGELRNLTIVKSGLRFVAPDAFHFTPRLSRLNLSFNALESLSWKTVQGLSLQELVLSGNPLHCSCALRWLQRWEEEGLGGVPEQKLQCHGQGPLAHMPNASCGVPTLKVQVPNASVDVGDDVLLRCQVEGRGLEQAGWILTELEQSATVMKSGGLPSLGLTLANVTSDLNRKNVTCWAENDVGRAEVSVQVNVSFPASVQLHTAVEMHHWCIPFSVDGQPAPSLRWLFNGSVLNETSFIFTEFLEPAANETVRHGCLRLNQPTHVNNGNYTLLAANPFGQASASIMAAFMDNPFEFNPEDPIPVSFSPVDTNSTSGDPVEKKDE

| Binder | Kd (TrkC) [nM] | Kd (P75 receptor) [nM] | Kd (TrkA) [nM] | Kd (TrkB) [nM] |
| --- | --- | --- | --- | --- |
| CVLSRKAVRRA [NGF-C2] | 658 | 385 | 727 | 883 |
| RGIDSKHWNSY (also called NGF derived peptide NGF-E) [NGF-E] | 1060 | 2600 |  | 254 |
| TFVKALTMDGKQAAWR (also called NGF derived peptide NGF-EE) [NGF-EE] | 51.9 | 226 |  | 10.3 |
| SYVRALTMDSKKRIGWR (also called BDNF derived peptide BDNF-EE) [BDNF-EE] | 166 | 110 |  | 38.7 |
| RGIDKRHWNSQ (also called BDNF derived peptide BDNF-E) [BDNF-E] | 697 | 556 |  | 173 |
| BDNF (ligand, UniProt P23560 129-247, looked up, also called brain-derived neurotrophic factor) HSDPARRGELSVCDSISEWVTAADKKTAVDMSGGTVTVLEKVPVSKGQLKQYFYETKCNPMGYTKEGCRGIDKRHWNSQCRTTQSYVRALTMDSKKRIGWRFIRIDTSCVCTLTIKRGR |  | 0.0584 |  | 1.18 |
